In US12692310B2, “ASIC1 channel antagonist antibody” (ShanghaiTech University, priority 2019, dated 2026):

Assays:
Assay type in all cases: cell-based
hASIC1a N322A = target: T1, hASIC1a N322A (Homo sapiens, UniProt P78348, N322A); test: FACS binding to alanine mutant hASIC1a-eYFP on CHO-K1 cells; details: vs WT hASIC1a
T1 construct: expressed in transfected cells; host or cells: CHO-K1, transient
T1 sequence (P78348 1-528 N322A): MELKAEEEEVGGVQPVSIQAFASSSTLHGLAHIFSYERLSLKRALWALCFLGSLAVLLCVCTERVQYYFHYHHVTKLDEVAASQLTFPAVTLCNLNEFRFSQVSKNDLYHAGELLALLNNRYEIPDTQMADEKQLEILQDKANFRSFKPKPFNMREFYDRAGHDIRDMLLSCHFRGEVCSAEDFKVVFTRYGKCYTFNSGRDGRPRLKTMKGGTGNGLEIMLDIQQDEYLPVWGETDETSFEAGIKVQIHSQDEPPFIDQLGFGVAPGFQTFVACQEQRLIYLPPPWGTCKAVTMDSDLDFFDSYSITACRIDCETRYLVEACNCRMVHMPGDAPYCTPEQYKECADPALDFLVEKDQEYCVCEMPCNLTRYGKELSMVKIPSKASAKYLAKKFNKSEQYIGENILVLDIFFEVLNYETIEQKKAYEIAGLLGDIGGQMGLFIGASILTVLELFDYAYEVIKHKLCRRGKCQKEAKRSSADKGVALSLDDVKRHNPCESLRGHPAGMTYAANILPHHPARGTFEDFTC
Method: To confirm the role of these amino acids, alanine mutagenesis was performed and four amino acids are very important for antibody binding were identified. Plasmid encoding single amino acid mutation of hASIC1a-eYFP was constructed and transient transfected into CHO-K1 cells. FACS binding assay was then performed to test whether the ASC06-IgG1 still binds to cell surface expressing mutated hASIC1a.

hASIC3a = target: T2, hASIC3a (Homo sapiens, UniProt Q9UHC3); test: Subtype selectivity, FACS binding, transfected CHO-K1 cells
T2 construct: expressed in transfected cells; host or cells: CHO-K1, transient
T2 sequence (Q9UHC3 1-531): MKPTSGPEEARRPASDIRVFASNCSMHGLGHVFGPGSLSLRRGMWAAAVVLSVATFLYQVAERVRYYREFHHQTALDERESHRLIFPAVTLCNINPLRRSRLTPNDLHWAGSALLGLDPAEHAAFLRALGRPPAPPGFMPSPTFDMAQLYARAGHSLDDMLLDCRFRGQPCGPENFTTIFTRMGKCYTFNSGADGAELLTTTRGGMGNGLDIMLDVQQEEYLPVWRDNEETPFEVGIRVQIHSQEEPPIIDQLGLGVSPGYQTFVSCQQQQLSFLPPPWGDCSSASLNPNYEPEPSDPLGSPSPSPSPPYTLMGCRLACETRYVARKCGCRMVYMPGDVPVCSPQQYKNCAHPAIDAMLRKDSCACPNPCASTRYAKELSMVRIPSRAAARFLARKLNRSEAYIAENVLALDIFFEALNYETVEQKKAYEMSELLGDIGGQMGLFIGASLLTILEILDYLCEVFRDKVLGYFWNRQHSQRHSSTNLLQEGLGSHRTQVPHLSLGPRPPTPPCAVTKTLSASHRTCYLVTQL
Method: (§1) To test the species and subtype selectivity of ASC06-IgG1, vectors encoding human ASIC1b-eYFP fusion, rat ASIC1a-eYFP fusion, mouse ASIC1a-eYFP fusion, hASIC2a-eYFP fusion, hASIC2b-eYFP fusion, and hASIC3a-eYFP fusion were constructed. The CHO-K1 cells were transiently transfected with these plasmids. FACS binding assay and immunocytochemistry (ICC) were carried out to determine if ASC06-IgG1 is able to bind to the cell surface-expressed ASIC homologs and isotypes.

hASIC2a/2b = target: T3, hASIC2a/2b (Homo sapiens, UniProt Q16515); test: as above
T3 construct: expressed in transfected cells; host or cells: CHO-K1, transient
T3 sequence (Q16515 1-512): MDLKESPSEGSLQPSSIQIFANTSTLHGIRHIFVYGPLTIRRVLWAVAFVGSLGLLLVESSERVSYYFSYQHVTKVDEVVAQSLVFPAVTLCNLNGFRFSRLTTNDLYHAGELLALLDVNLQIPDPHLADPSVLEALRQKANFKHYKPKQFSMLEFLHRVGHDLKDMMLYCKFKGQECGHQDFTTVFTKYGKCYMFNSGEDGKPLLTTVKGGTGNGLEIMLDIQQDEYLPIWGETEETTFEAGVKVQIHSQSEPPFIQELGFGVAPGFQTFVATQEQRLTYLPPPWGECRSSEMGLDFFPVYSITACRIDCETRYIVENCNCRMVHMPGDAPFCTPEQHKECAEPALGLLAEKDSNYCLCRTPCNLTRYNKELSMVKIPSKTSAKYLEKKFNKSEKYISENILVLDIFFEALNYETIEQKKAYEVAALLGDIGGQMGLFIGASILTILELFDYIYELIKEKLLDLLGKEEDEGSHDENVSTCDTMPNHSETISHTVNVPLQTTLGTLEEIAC
T3 sequence (Q16515 1-563 isoform Q16515-2): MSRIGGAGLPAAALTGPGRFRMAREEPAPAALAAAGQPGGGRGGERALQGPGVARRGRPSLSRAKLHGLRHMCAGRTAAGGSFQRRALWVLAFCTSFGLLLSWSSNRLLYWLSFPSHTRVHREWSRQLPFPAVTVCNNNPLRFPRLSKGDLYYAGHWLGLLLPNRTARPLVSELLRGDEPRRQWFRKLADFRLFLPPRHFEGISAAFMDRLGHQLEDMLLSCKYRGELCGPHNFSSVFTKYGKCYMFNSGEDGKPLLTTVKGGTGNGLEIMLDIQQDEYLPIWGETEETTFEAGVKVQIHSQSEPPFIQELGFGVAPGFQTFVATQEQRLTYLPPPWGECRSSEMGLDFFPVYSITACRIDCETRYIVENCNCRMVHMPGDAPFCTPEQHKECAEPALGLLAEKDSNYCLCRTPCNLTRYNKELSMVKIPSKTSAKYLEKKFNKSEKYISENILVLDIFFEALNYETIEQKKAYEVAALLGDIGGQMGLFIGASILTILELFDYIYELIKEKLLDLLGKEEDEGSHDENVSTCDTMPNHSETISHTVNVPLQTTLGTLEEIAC
Method: as §1

hASIC2a = target: T4, hASIC2a (Homo sapiens, UniProt Q16515); test: as above
T4 construct: expressed in transfected cells; host or cells: CHO-K1, transient
T4 sequence (Q16515 1-512): T3 sequence (Q16515 1-512)
Method: as §1

B1: ASC06-IgG1: ASC06 antibody converted into a full length IgG1 form (antibody, V domains shown)
VH: QVQLQQSGGGLVQPGGSLRLSCAASGFTFSSYAMSWVRQAPGKGLEWVSAISGSGGSTYYADSVKGRFTISRDNSKNTLYLQMNSLRAEDTAVYYCAKDSFYGYSKGDWGQGTLVTVSS
VL: QSALTQPASVSGSPGQSITISCTGTSSDVGAYNYVSWYQQQPGKAPKLMIYGVSNRPSGVSNRFSGSKSGNAASLTISGLQAEDEADYYCSSYTSSSTYVFGTGTKLTVLG
binding to hASIC1a N322A mutation (hASIC1a N322A): decrease
FACS recognition of hASIC3a (hASIC3a): not
FACS recognition of hASIC2a/2b (hASIC2a/2b): not
FACS recognition of hASIC2a (hASIC2a): not
